Measured values: patent US20160009795A1 (BIOCARE MEDICAL, published 2016)

Experiments:
[1] = target: T1, p40 peptide amino acids 1-17 (MLYLENNAQTQFSEPQY) (human); experiment: epitope mapping, peptide ELISA and dot blot
T1 peptide: MLYLENNAQTQFSEPQY
Source text: (§1) In order to determine the peptide sequence of p40 that is recognized by anti-p40 antibodies such as BC28, epitope mapping may be conducted perhaps using two assays: direct ELISA and even dot blot. In an ELISA assay, the sensitivity and specificity of the anti-p40 [BC28] antibody may be determined by measuring the antibody titer at about 1:500 and about 1:1000. Overlapping peptides at a length of about 15 amino acids each, covering the human p40 protein sequence from perhaps 1 to 17 amino acids, may be used to determine a sequence of BC28 binding.

[2] = target: T2, p40 peptide amino acids 1-9 (MLYLENNAQ) (human); experiment: epitope mapping, peptide ELISA and dot blot
T2 peptide: MLYLENNAQ
Source text: as §1

B1: mouse monoclonal anti-p40 antibody BC28 (antibody, mouse IgG1, V domains shown)
VH: GVKLVESGGGFVKPGGSLTLSCAASGFTFSIYAMSWVRQTPEKRLEWVTSISSGDDIFYPDNLKGQFTISRDNARNILYLQMSSLRSEDTAIYYCVRHGYNATDYWGQGTSVTVSS
VL: DVLMTQTPLSLPVSLGDQASISCRSSQSIVYSNGNTYLEWYLQKPGQSPKLLIYKVSNRFSGVPDRFSGSGSGTDFTLKISRVEAEDLGVYYCFQGSHVPFTFGSGTKLEIK
notes: also called p40 [BC28]; p40 (M)
B1: binds [1]; binds [2].
